# Source: US20240166765A1, “INFLAMMATORY DISEASE TREATMENT USING ANTI-TISSUE FACTOR ANTIBODIES” (Iconic Therapeutics LLC, priority 2020, published 2024)
# Key:
# [1] = molecular target: T1, human TF (TF-positive MDA-MB-231 cells) (Homo sapiens, UniProt P13726); assay: Antibody competition assay with 25A3 on MDA-MB-231 cells; format: binding; conditions: 20 nM 25A3-Alexa488
# T1 construct: Human TF-positive cancer cell lines A431 and MDA-MB-231; host or cells: MDA-MB-231
# Procedure: Alexa Fluor antibodies were generated using Alexa Fluor 488 5-sulfo-[…] esters (ThermoFisher Scientific) following manufacturer's protocol. Excess Alexa Fluor dye was removed from the antibody dye conjugate preparations by gel filtration (ThermoFisher Scientific).
# After another 1 hr incubation on ice, cells were washed, stained with a viability dye, and analyzed by flow cytometry. The Alexa488 fluorescence data from viable cells was summarized using median fluorescence intensity.
# [2] = system: thrombin generation (relipidated TF in normal pooled plasma); assay: Thrombin generation assay (TGA) without antibody pre-incubation; format: biochemical, human; conditions: Ab conc. 10 nM, Table 44
# Procedure: (§1) The TGA assay was performed using the calibrated-automated-thrombogram (CAT) instrument manufactured and distributed by STAGO. The test method design was equivalent to a standard CAT assay measurement, except that the plasma source was NPP in citrate/CTI. […] Relipidated TF was added to a 96-well assay plate, followed by addition of the antibody/NPP mixture. After a 10-min incubation or directly after combining the relipidated TF with antibody/NPP, thrombin generation was initiated by the addition of calcium and the thrombin substrate. The STAGO software was used to report the following parameters: Peak IIa (highest thrombin concentration generated [nM]); Lag Time (time to IIa generation [min]); ETP (endogenous thrombin potential, area under the curve [nM×min]); and ttPeak (time to Peak IIa [min]).
# as §1, with “was normal pooled plasma (NPP)” for “was NPP”, “in citrate supplemented with corn trypsin inhibitor (citrate/CTI).” for “in citrate/CTI.”
# (§2) TGA assay was performed using the calibrated-automated-thrombogram (CAT) instrument manufactured and distributed by STAGO (Diagnostica Stago SAS, Asnieres sur Seine, France). […] The anti-TF antibodies were titrated at 0, 10, 50 and 100 nM and mixed with NPP in citrate/CTI. Relipidated TF was added to a 96-well assay plate, followed by addition of the antibody/NPP mixture. After a 10-min incubation or directly after combining the relipidated TF with antibody/NPP, thrombin generation was initiated by the addition of calcium and the thrombin substrate. The STAGO software was used to report the following parameters: Peak IIa (highest thrombin concentration generated on the thrombin generation curve [nM]); Lag Time (time from assay start to the moment 10 nM of thrombin is formed [min]); ETP (endogenous thrombin potential, area under the curve [nM×min]); and ttPeak (time from assay start to Peak IIa [min]). […] As used herein, the term “thrombin generation assay” (TGA) refers to the TGA used in this example.
# [3] = molecular target: T2, chimeric human-rat TF constructs expressed on HEK293 cells (Homo sapiens, UniProt P13726, I184G/T186I/W190R/Y188T); assay: Epitope binning, chimeric TF construct mapping (live cell staining assay); format: binding; conditions: construct h152-158_r (4); human segment replaced by rat segment
# T2 construct: expressed in transfected cells; host or cells: HEK293
# Procedure: (§3) To establish binding of the anti-human TF antibodies to the various TF constructs, HEK293 cells were transfected with a DNA plasmid that co-expresses the TF construct and a green fluorescent protein marker. For a subset of the antibodies, an antibody titration (a 12-point 1:3 dilution series starting at 250 nM) was evaluated on select TF constructs (See international PCT application PCT/US2019/012427 and U.S. utility application Ser. No. 16/959,652, incorporated herein by reference in their entirety). […] Two days after transfection, cells were collected from the tissue culture plate, stained with 15 μg/ml of the indicated anti-TF antibody, washed, stained with anti-human IgG-Fc Alexa Fluor 647 polyclonal antibody, washed, and stained with the viability dye 4′,6-Diamidino-2-Phenylindole, Dihydrochloride. Upon acquisition of 80,000 live events on a flow cytometer, live cells marked with the fluorescent marker were analyzed for the degree of staining by the anti-TF antibody. […] As used herein, the term “live cell staining assay” refers to the antibody binding assay used in this example.
# (§4) When “Percentage antibody binding to TF construct relative to hTF” in Tables 51 and 52 was less than 50%, the antibody was considered a non-binder (0) in Tables 53 and 54.
# [4] = molecular target: T3, chimeric human-rat TF constructs expressed on HEK293 cells (Homo sapiens, UniProt P13726, A200N/D212E/E215V/K197R/K201T/N203H/N216S/S192D/S195T/S220F/V221A); assay: as above; format: binding; conditions: construct h159-189_r (11); human segment replaced by rat segment
# T3 construct: expressed in transfected cells; host or cells: HEK293
# Procedure: as §3, §4
# [5] = molecular target: T4, chimeric human-rat TF constructs expressed on HEK293 cells (Homo sapiens, UniProt P13726, E160K/E162S/F148Y/L140I/N156K/R163F/S147K/T144V/V151G/V155L); assay: as above; format: binding; conditions: construct h108-132_r (10); human segment replaced by rat segment
# T4 construct: expressed in transfected cells; host or cells: HEK293
# Procedure: as §3, §4
# [6] = system: thrombin generation (relipidated TF in normal pooled plasma); assay: Thrombin generation assay (TGA) with 10 min antibody pre-incubation; format: biochemical, human; conditions: Ab conc. 10 nM
# Procedure: as §1
# as §1, with “was normal pooled plasma (NPP)” for “was NPP”, “in citrate supplemented with corn trypsin inhibitor (citrate/CTI).” for “in citrate/CTI.”
# as §2
# TF:FVIIa = molecular target: T5, TF:FVIIa (Homo sapiens, UniProt P13726); assay: FXa conversion assay on MDA-MB-231 cells; format: cell-based; conditions: concentrations of 25, 50, and 100 nM; Example 26
# T5 construct: host or cells: MDA-MB-231
# Procedure: To evaluate the ability of TF:FVIIa to convert FX into FXa in the presence of human antibodies against TF, 5×10^4 MDA-MB-231 cells (ATCC, Manassas, VA, USA) were plated into tissue culture-treated black 96-well plates (Greiner Bio-One, Monroe, NC, USA). […] Upon reconstitution of the binary TF:FVIIa complex with a final concentration of 20 nM of FVIIa, cells were incubated for 5 min at 37° C.
# Briefly, 5×10^4 MDA-MB-231 cells (ATCC, Manassas, VA, USA) were plated into tissue culture-treated black 96-well plates (Greiner Bio-One, Monroe, NC, USA) and cultured overnight. […] Upon reconstitution of the binary TF:FVIIa complex with a final concentration of 20 nM of FVIIa, cells were incubated for 5 min at 37° C.
substance,measurement,setting,value
TF-011,% 25A3 binding,[1],did not reduce
same,ETP,[2],1714 nM·min
same,Antibody binding to TF construct,[3],"1 (between 50% and 150%, the antibody was considered a binder (1))"
same,Antibody binding to TF construct,[4],"1 (between 50% and 150%, the antibody was considered a binder (1))"
same,Antibody binding to TF construct,[5],"1 (between 50% and 150%, the antibody was considered a binder (1))"
same,ETP,[6],792 nM·min
same,inhibited FX conversion by,TF:FVIIa,57-59%
